Reference: patent publication US20070031956A1 (VERTEX PHARMACEUTICALS, published 2007)

Biological target: the molecule itself
Experiment: analytical ultracentrifugation (sedimentation velocity), monomer-dimer self-association
Protocol: All sedimentation velocity experiments were performed with the Beckman Coulter Optima XL-I using an An60 Ti rotor and charcoal-filled Epon double-sector cells. […] Experiments were performed at 42,000 rpm for 8 h at 20° C. Radial absorbance scans were collected in continuous scan mode at 280 nm every 10 min at a spacing of 0.001 cm.

B1: Full-length human Pim-1 kinase (residues M1-K313) with N-terminal HexaHis tag and thrombin cleavage site (enzyme)
chain: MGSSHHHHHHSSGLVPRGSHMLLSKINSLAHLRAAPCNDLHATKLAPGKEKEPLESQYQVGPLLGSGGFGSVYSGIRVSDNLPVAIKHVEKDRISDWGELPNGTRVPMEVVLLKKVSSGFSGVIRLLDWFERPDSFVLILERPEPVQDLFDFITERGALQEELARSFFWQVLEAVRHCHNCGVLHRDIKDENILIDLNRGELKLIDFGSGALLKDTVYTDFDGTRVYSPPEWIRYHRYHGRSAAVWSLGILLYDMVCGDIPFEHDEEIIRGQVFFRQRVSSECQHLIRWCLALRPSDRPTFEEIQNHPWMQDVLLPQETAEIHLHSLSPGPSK
modifications: heterogeneous phosphorylation (mixture of species with 0-5 phosphoryl groups): extensively phosphorylated in the HexaHis tag region; Ser261 major site in Pools III and IV; minor sites Ser8, Thr23 and Ser98
notes: Expressed in E. coli and purified by TALON, Superdex 200 and MonoQ; also called Pim-1 protein
B1 was tested, and the Kd was 23 µM and the “monomer:dimer ratio (dimer share)” value was 20.
